{"source": "patent US7053264B2", "about": "“Nuclear reprogramming using IWSI and related chromatin remodeling ATPases” (Sangamo Biosciences, Inc., priority 2000, dated 2006)", "molecules": {"B1": {"name": "rISWI: recombinant Drosophila ISWI produced in E. coli (protein, UniProt Q24368 1-1027, looked up)", "Chromatin-remodeling complex …": "MSKTDTAAVEATEENSNETTSDAATSSSGEKEAEFDNKIEADRSRRFDFLLKQTEIFTHFMTNSAKSPTKPKGRPKKIKDKDKEKDVADHRHRKTEQEEDEELLAEDSATKEIFRFDASPAYIKSGEMRDYQIRGLNWMISLYENGINGILADEMGLGKTLQTISLLGYLKHFKNQAGPHIVIVPKSTLQNWVNEFKKWCPSLRAVCLIGDQDTRNTFIRDVLMPGEWDVCVTSYEMCIREKSVFKKFNWRYLVIDEAHRIKNEKSKLSEILREFKTANRLLITGTPLQNNLHELWALLNFLLPDVFNSSEDFDEWFNTNTCLGDDALITRLHAVLKPFLLRRLKAEVEKRLKPKKEMKIFVGLSKMQRDWYTKVLLKDIDVVNGAGKVEKMRLQNILMQLRKCTNHPYLFDGAEPGPPYTTDTHLVYNSGKMAILDKLLPKLQEQGSRVLIFSQMTRMLDILEDYCHWRNYNYCRLDGQTPHEDRNRQIQEFNMDNSAKFLFMLSTRAGGLGINLATADVVIIYDSDWNPQMDLQAMDRAHRIGQKKQVRVFRLITESTVEEKIVERAEVKLRLDKMVIQGGRLVDNRSNQLNKDEMLNIIRFGANQVFSSKETDITDEDIDVILERGEAKTAEQKAALDSLGESSLRTFTMDTNGEAGTSSVYQFEGEDWREKQKLNALGNWIEPPKRERKANYAVDAYFREALRVSEPKAPKAPRPPKQPIVQDFQFFPPRLFELLDQEIYYFRKTVGYKVPKNTELGSDATKVQREEQRKIDEAEPLTEEEIQEKENLLSQGFTAWTKRDFNQFIKANEKYGRDDIDNIAKDVEGKTPEEVIEYNAVFWERCTELQDIERIMGQIERGEGKIQRRLSIKKALDQKMSRYRAPFHQLRLQYGNNKGKNYTEIEDRFLVCMLHKLGFDKENVYEELRAAIRASPQFRFDWFIKSRTALELQRRCNTLITLIERENIELEEKERAEKKKKAPKGSVSAGSGSASSNTPAPAPQPKASQKRKSEVVATSSNSKKKKK"}, "B2": {"name": "mutant of rISWI: rISWI in which lysine 159 in the adenine nucleotide binding domain was replaced with arginine; negative control (protein, UniProt Q24368 1-1027, looked up, variant K159R)", "Chromatin-remodeling complex …": "B1 Chromatin-remodeling complex … with K159R"}}, "key": {"[1]": {"tested_on": "nuclei of Xenopus XTC-2 cells", "experiment": "Biochemical complementation assay: release of TBP from nuclei by purified proteins combined with SP Sepharose flow through (FT)", "conditions": "for reconstitution of release of TBP from nuclei: combined with SP Sepharose FT in the presence of ERS, FIG. 4D", "description": "(§1) “Extract” refers to unfractionated egg extract. […] The gel was stained with Coomassie Blue. FIG. 4C depicts ATPase activity of ISWI-D and rISWI. ATPase activity was determined in the presence of buffer (−), DNA (D), or nucleosomes (N). The arrowhead indicates the free phosphate generated by ATP hydrolysis. FIG. 4D depicts biochemical complementation assays for activities capable of removing TBP from the nucleus. Egg extract (Ext), SP Sepharose flow through (FT), and FT complemented with various purified proteins at indicated concentrations were compared for remodeling activity by monitoring residual TBP in the nuclear pellet after incubation of nuclei in an egg extract. All lanes included ERS except lanes 7 and 8, which contained apyrase. Np indicates nucleoplasmin.\n(§2) The ISWI-D complex was purified from Xenopus egg extract (FIG. 4A), and shown to contain two subunits: p195 and ISWI (FIG. 4B). For the purification, egg extract was fractionated through BioRex 70 (Bio-Rad, Hercules, Calif.) and MonoQ (Amersham Pharmacia, Piscataway, N.J.) essentially as described in Wade et al. (1998) Curr Biol 8:843–846. The MonoQ ISWI-D peak (eluting at approximately 0.45 M NaCl) was further purified by gradient elution on MonoS (linear gradient from 0.1 to 0.5 M NaCl in Buffer A) as described in Wade et al., supra. ISWI-D was eluted at approximately 0.3 M NaCl. Drosophila rISWI was produced in E. coli and purified by IMPACT T7 system (New England Biolabs, Beverly, Mass.) and Superdex 200 gel filtration column (Amersham Pharmacia). ATPase activity was tested as described in Corona et al, supra.\nEither ISWI-D complex or rISWI were essential for release of TBP from nuclei. The endogenous activity in the extract responsible for the release of TBP from chromatin was depleted by applying the extract to SP Sepharose, and restored by combining the SP Sepharaose flow through (FT) and the 0.5 M NaCl eluate from BioRex 70 that contained ISWI (FIG. 4D, lanes 2 and 3). FT was prepared from SP Sepharose (Amersham Pharmacia) by equilibrating the resin with Buffer A and briefly centrifuging to deplete the buffer. The egg extract was incubated with the equilibrated resin for 30 minutes in a cold room and briefly centrifuged to collect FT. […] Release of TBP from nuclei by ISWI plus FT was also confirmed by immunofluorescence.\nThree other proteins known to modify protein-DNA interactions (TAF172, the Mi-2 complex and nucleoplasmin) were also tested in this biochemical complementation assay. Recombinant human TAF172 was prepared in a baculovirus expression system (see Chicca et al. (1998) Mol Cell Biol 18:1701–1710), while the Mi-2 complex and nucleoplasmin were isolated from Xenopus egg extracts. TAF 172, the human homologue of yeast Mot1, also belongs to the SWI2/SNF2 superfamily and removes TBP from DNA in vitro (Auble et al. (1994) Genes Dev 8:1920–1934; Chicca et al., supra). The Xenopus Mi-2 complex contains Mi-2, also a member of the SWI2/SNF2 superfamily, in addition to five other subunits and remodels chromatin (Wade et al (1998) Curr Biol 8:843–846; Guschin et al. (2000) Biochem 39:5238–5245). Nucleoplasmin remodels sperm chromatin upon fertilization (Dimitrov et al., supra; Philpott et al. (2000) Cell 69:759767). […] Higher concentrations of these proteins were also tested, with similar results."}, "[2]": {"tested_on": "nuclei of Xenopus XTC-2 cells", "experiment": "Nuclear remodeling assay: permeabilized somatic nuclei incubated in Xenopus egg S phase extract, TBP in nuclear pellet by immunoblot", "assay_type": "biochemical", "conditions": "agent added to nuclear remodeling reaction in egg extract; immunoblot FIG. 1A", "protocol": "To simplify nuclear remodeling assays by eliminating nuclear transport steps, both the plasma membrane and nuclear envelope of Xenopus XTC-2 cells (henceforth called nuclei) were permeabilized with a detergent, essentially as described in Adam et al. (1992) Methods Enzymol. […] Xenopus XTC-2 cells were permeabilized with 30 μg/ml digitonin for three minutes using the LL-Bsa method (Gurdon (1976) J. Embryol. Exp. Morphol. 36:5235407) replacing lysolecithin (which caused tight aggregation of nuclei) by digitonin. […] The permeability of the nuclear envelope was monitored by the passive entry of fluorescence-labeled immunoglobulin G (150k Da) into the nuclei (Newmeyer et al. (1986) J Cell Biol 103:2091–2102). […]\nAfter incubation for two hours at room temperature 100 μl of Buffer B (10 mM HEPES pH 7.8, 75 mM KCl, 4 mM magnesium chloride, 250 mM sucrose, 0.5 mM spermidine trihydrochloride, 0.15 mM spermine tetrahydrochloride, 1 mM dithiothreitol, 10 mM β-glycerophosphate, 1 μg/ml leupeptin, 2 μg/ml pepstatin A, 100 μM 4-(2-aminoethyl)-benzenesulfonyl fluoride, AEBSF) was added and the reaction mix was centrifuged at 15,000× g for 10 min. The pellet, called remodeled nuclei, was analyzed by immunoblotting using SuperSignal West Dura (Pierce, Rockford, Ill.) as a substrate of horseradish peroxidase."}, "[3]": {"tested_on": "nuclear matrix", "experiment": "Release of TBP from purified nuclear matrix, immunoblot", "assay_type": "biochemical, Xenopus", "conditions": "presence of ERS; ISWI-D or rISWI added to the FT fraction; FIG. 5", "description": "Analysis of histone H2B is shown as a control. Nuclear matrix was prepared as described in the Examples, and nuclear matrix proteins were separated by gel electorphoresis. Each lane contained matrix from 4×10^5 nuclei. The gel was blotted, and the blots were analyzed with antibodies to TBP or H2B. Nuclei were incubated with egg extract (lanes 2 and 3) or various combinations of proteins and protein fractions (lanes 4–8) prior to preparation of nuclear matrix. Analysis of a preparation of nuclear matrix from nuclei that were not incubated with extract or proteins is shown in lane 1. Presence or absence of an ERS in the incubation is indicated by “+” and “−,” respectively.\nTo understand the mechanism of the release of TBP further, nuclear matrix was prepared from the nuclei that had not been incubated in the egg extract, by using 0.5% Triton X-100, DNase I, 250 mM ammonium sulfate, and 2M NaCl. The nuclear matrix was prepared essentially as described D. L. Spector and D. Goldman, L. L. A, in Cells, A Laboratory Manual. (Cold Spring Harbor Laboratory Press, New York, 1997) pp. 44.1–44.8. […]\nThe purified nuclear matrix was incubated in the egg extract and its composition was analyzed by immunoblotting."}, "[4]": {"tested_on": "nucleosomes", "experiment": "ATPase activity in the presence of buffer, DNA or nucleosomes", "assay_type": "biochemical", "conditions": "FIG. 4C", "description": "as §1\nas §2, with “Drosophila rISWI was produced in E. coli and purified by IMPACT T7 system (New England Biolabs, Beverly, Mass.) and Superdex 200 gel filtration column (Amersham Pharmacia). ATPase activity was tested as described in Corona et al, supra.” left out"}}, "note": "Residue numbers refer to the chain shown, from its start.", "data": [{"molecule": "TAF172: recombinant human TAF172, homologue of yeast Mot1, prepared in a baculovirus expression system", "values": [{"measurement": "reconstitution of release of TBP from nuclei", "setting": "[1]", "value": "None of these proteins proved capable of reconstituting TBP removal activity"}]}, {"molecule": "aphidicholin", "values": [{"measurement": "effect on exclusion (loss) of TBP from nuclei in egg extract", "setting": "[2]", "value": "neither aphidicholin nor arabinosylcytosine (both inhibitors of DNA replication) inhibited the loss of TBP"}]}, {"molecule": "apyrase", "values": [{"measurement": "effect on exclusion (loss) of TBP from nuclei in egg extract", "setting": "[2]", "value": "exclusion was inhibited"}]}, {"molecule": "nucleoplasmin: molecular chaperone isolated from Xenopus egg extracts; remodels sperm chromatin", "values": [{"measurement": "reconstitution of release of TBP from nuclei", "setting": "[1]", "value": "None of these proteins proved capable of reconstituting TBP removal activity"}]}, {"molecule": "B1", "values": [{"measurement": "reconstitution of release of TBP from nuclei", "setting": "[1]", "value": "competent to reconstitute release of TBP from nuclei"}, {"measurement": "release of TBP from nuclei in combination with nucleoplasmin", "setting": "[1]; nucleoplasmin substituted for the FT fraction", "value": "incapable of releasing TBP from nuclei"}, {"measurement": "release of TBP from nuclei in the absence of FT", "setting": "[1]; without FT fraction", "value": "Neither the ISWI-D complex nor rISWI could release TBP from nuclei"}, {"measurement": "release of TBP from the nuclear matrix", "setting": "[3]", "value": "resulted in release of TBP"}]}, {"molecule": "B2", "values": [{"measurement": "reconstitution of release of TBP from nuclei", "setting": "[1]", "value": "not competent to reconstitute release of TBP from nuclei"}, {"measurement": "nucleosomal ATPase activity", "setting": "[4]", "value": "lacked nucleosomal ATPase activity"}]}]}
